Results published in patent publication US20260250421A1.

Experiments:
[1] = biological target: human PTK7 on human cancer cell lines (human) (UniProt Q13308); test: flow cytometry, NCI-H292 cells, isotype control
[2] = biological target: human PTK7 on human cancer cell lines (human) (UniProt Q13308); test: flow cytometry, NCI-H520 cells, isotype control
[3] = biological target: human PTK7 on human cancer cell lines (human) (UniProt Q13308); test: flow cytometry, SK-OV-3 cells, isotype control
[4] = biological target: human PTK7 on human cancer cell lines (human) (UniProt Q13308); test: flow cytometry, A-431 cells, isotype control
[5] = biological target: human PTK7 on human cancer cell lines (human) (UniProt Q13308); test: flow cytometry, NCI-H358 cells, isotype control
[6] = biological target: dog PTK7 on dog cancer cell lines (dog); test: flow cytometry, D-17 dog cells, isotype control
[7] = biological target: human PTK7 on human cancer cell lines (human) (UniProt Q13308); test: flow cytometry, HCT116 cells, isotype control
[8] = biological target: dog PTK7 on dog cancer cell lines (dog); test: flow cytometry, CMT-U27 dog cells, isotype control
[9] = biological target: human PTK7 on human cancer cell lines (human) (UniProt Q13308); test: flow cytometry, HCC1954 cells, isotype control
[10] = biological target: human PTK7 on human cancer cell lines (human) (UniProt Q13308); test: flow cytometry, NCI-N87 cells, isotype control
[11] = biological target: human PTK7 on human cancer cell lines (human) (UniProt Q13308); test: flow cytometry, BT-20 cells, isotype control
[12] = biological target: human PTK7 on human cancer cell lines (human) (UniProt Q13308); test: flow cytometry, PC-3 cells, isotype control
[13] = biological target: human PTK7 on human cancer cell lines (human) (UniProt Q13308); test: flow cytometry, NCI-H226 cells, isotype control

human PTK7 on human cancer cell lines (human), sequence (Q13308 31-1070 limits assumed): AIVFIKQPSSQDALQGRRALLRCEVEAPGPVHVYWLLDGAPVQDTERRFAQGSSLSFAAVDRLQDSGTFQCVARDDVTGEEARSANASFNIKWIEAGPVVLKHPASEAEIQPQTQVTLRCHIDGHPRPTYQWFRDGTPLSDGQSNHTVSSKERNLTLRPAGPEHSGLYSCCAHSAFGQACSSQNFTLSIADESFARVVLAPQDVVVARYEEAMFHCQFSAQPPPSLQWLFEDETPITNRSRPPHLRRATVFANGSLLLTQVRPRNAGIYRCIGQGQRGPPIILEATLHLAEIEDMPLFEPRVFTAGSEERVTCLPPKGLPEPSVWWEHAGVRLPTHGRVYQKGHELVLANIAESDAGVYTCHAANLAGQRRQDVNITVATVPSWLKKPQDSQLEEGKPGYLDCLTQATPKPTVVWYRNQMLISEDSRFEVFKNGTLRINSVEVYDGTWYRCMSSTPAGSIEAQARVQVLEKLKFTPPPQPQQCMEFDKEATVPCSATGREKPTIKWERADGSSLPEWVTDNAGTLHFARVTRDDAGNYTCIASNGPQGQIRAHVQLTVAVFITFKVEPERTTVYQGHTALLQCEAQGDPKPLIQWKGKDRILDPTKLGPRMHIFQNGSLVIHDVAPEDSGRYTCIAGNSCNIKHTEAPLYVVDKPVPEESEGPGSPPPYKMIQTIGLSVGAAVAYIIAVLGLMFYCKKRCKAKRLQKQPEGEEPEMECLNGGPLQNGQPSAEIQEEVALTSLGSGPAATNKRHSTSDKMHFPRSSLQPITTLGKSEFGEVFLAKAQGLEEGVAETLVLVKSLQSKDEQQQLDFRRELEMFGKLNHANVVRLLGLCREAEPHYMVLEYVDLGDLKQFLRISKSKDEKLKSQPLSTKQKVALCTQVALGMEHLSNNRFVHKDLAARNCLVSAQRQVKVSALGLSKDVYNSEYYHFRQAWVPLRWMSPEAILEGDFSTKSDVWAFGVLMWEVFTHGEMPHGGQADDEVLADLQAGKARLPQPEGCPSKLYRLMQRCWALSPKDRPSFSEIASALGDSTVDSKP

MFI [1]: 2230
MFI [2]: 2420
MFI [3]: 3860
MFI [4]: 4630
MFI [5]: 3360
MFI [6]: 3520
MFI [7]: 3110
MFI [8]: 1650
MFI [9]: 6340
MFI [10]: 2850
MFI [11]: 5920
MFI [12]: 3690
MFI [13]: 9840
Substance: Human IgG1 (ISO control) (antibody)
